{"source": "paper PMC7311918", "about": "“Structures of Human Antibodies Bound to SARS-CoV-2 Spike Reveal Common Epitopes and Recurrent Features of Antibodies” (Cell, 2020)", "target": "T1, SARS-CoV-2 S 2P trimer (S ectodomain, residues 16-1206) (SARS-CoV-2, early isolate GenBank …, UniProt P0DTC2, stabilised)", "T1 construct": "also called SARS-CoV-2 S protein; SARS-CoV-2 S trimer", "experiment": "cryo-EM structure", "conditions": "both partners purified", "note": "Values joined by “and” are separate entries in the source; they are usually repeats but may differ in a detail not shown here. Identical values can stand only once.", "data": [{"binder": "C105 Fab (Fab, V domains shown, also called mAb C105) VH: QVQLVESGGGLIQPGGSLRLSCAASGFTVSSNYMSWVRQAPGKGLEWVSVIYSGGSTYYADSVKGRFTISRDNSKNTLYLQMNSLRAEDTAVYYCARGEGWELPYDYWGQGTLVTVSS VL: QSALTQPPSASGSPGQSVTISCTGTSSDVGGYKYVSWYQQHPGKAPKLMIYEVSKRPSGVPDRFSGSKSGNTASLTVSGLQAEDEADYYCSSYEGSNNFVVFGGGTKLTVL", "values": [{"measurement": "stoichiometry N", "result": "2 Fabs per S trimer and 3 Fabs per S trimer"}]}]}
